The RNAGym collection of RNA variant scans (doi:10.1093/molbev/msab373)

B1: Azoarcus group I ribozyme (parent)
chain: GUGCCUUGCGCCGGGAAACCACGCAAGGGAUGGUGUCAAAUUCGGCGAAACCUAAGCGCCCGCCCGGGCGUAUGGCAACGCCGAGCCAAGCUUCGGCGCCUGCGCCGAUGAAGGUGUAGAGACUAGACGGCACCCACCUAAGGCAAACGCUAUGGUGAAGGCAUAGUCCAGGGAGUGGCGAAAGUCACACAAACCGG

Variants of: B1
Assay: reverse-splicing fitness (ratio to wild type); higher = more active; in vitro selection; Mg2+ level not given
Outline: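 An in vitro group I ribozyme library with randomized positions was T7-transcribed and gel-purified. In triplicate, 10 pmol RNA in EPPS pH 7.5 was reacted with 50 pmoles of a 30-nt RNA substrate for 1 h at 37 °C across several added MgCl2 levels (1–48 mM), then stopped with EDTA. Products were reverse transcribed from a substrate-complementary primer, PCR-amplified and sequenced (HiSeq 4000). Fitness is a variant's read proportion after selection over that before, normalised to wild type.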
For C82A A111G A120C A145C C150G C169G U176C, the reverse-splicing fitness was 0.00812.
C82A A111G A120C A145C C150G C169G U176A gave a reverse-splicing fitness of 0.00979.
C82A A111G A120C A145C C150G C169G U176G gave a reverse-splicing fitness of 0.00568.
In the case of C82A A111G A120G A145C C150U C169G, the reverse-splicing fitness is reported as 0.00885.
Variant C82A A111G A120G A145C C150U C169A has a reverse-splicing fitness of 0.00986.
For C82A A111G A120G A145C C150U C169U, the reverse-splicing fitness was 0.0082.
C82A A111G A120C A145U C150G C169G showed a reverse-splicing fitness of 0.0075.
C82A A111G A120C A145U C150G C169A showed a reverse-splicing fitness of 0.00895.
Work on C82A A111G A120C A145U C150G C169U yielded a reverse-splicing fitness of 0.00884.
C82A A111C U176A gave a reverse-splicing fitness of 0.0824.
Variant C82A A111C U176G has a reverse-splicing fitness of 0.0172.
Work on C82A A111C U176C yielded a reverse-splicing fitness of 0.102.
C82A A111G A120C A145G C150G C169U U176C showed a reverse-splicing fitness of 0.0117.
C82A A111G A120C A145G C150G C169U U176A gave a reverse-splicing fitness of 0.0129.
In the case of C82A A111G A120C A145G C150G C169U U176G, the reverse-splicing fitness is reported as 0.00802.
With C82A A111G A120G A145C C150G U176A the reverse-splicing fitness was 0.0058.
Work on C82A A111G A120G A145C C150G U176C yielded a reverse-splicing fitness of 0.0087.
For C82A A111G A120G A145C C150G U176G, the reverse-splicing fitness was 0.00287.
Work on C82A A111G A120C A145G C150G U176G yielded a reverse-splicing fitness of 0.00593.
Work on C82A A111G A120C A145G C150G U176A yielded a reverse-splicing fitness of 0.00873.
C82A A111G A120C A145G C150G U176C gave a reverse-splicing fitness of 0.0121.
In the case of C82A A111C C169U U176C, the reverse-splicing fitness is reported as 0.0187.
C82A A111C C169U U176G gave a reverse-splicing fitness of 0.00856.
With C82A A111C C169U U176A the reverse-splicing fitness was 0.0162.
Work on C82A A111G A120C A145G C150A yielded a reverse-splicing fitness of 0.0137.
Variant C82A A111G A120C A145G C150G has a reverse-splicing fitness of 0.0105.
Variant C82A A111G A120C A145G C150U has a reverse-splicing fitness of 0.0349.
Variant C82A A111G A120C A145U C150G C169A U176A has a reverse-splicing fitness of 0.011.
In the case of C82A A111G A120C A145U C150G C169A U176G, the reverse-splicing fitness is reported as 0.00597.
With C82A A111G A120C A145U C150G C169A U176C the reverse-splicing fitness was 0.0114.
In the case of C82A A111G A120G A145C C150G C169A U176A, the reverse-splicing fitness is reported as 0.00923.
C82A A111G A120G A145C C150G C169A U176C gave a reverse-splicing fitness of 0.00743.
Variant C82A A111G A120G A145C C150G C169A U176G has a reverse-splicing fitness of 0.00564.
For C82A A111G A120C A145G C150A C169U, the reverse-splicing fitness was 0.00999.
Variant C82A A111G A120C A145G C150A C169G has a reverse-splicing fitness of 0.00915.
For C82A A111G A120C A145G C150A C169A, the reverse-splicing fitness was 0.0119.
C82A A111G A120C C150G C169G U176G showed a reverse-splicing fitness of 0.00561.
With C82A A111G A120C C150G C169G U176A the reverse-splicing fitness was 0.00731.
With C82A A111G A120C C150G C169G U176C the reverse-splicing fitness was 0.00485.
In the case of C82A A111G A120C A145U C150U U176G, the reverse-splicing fitness is reported as 0.00709.
C82A A111G A120C A145U C150U U176C gave a reverse-splicing fitness of 0.0248.
In the case of C82A A111G A120C A145U C150U U176A, the reverse-splicing fitness is reported as 0.0145.
In the case of C82A A111G A120C A145U C150A C169U U176G, the reverse-splicing fitness is reported as 0.00664.
C82A A111G A120C A145U C150A C169U U176C showed a reverse-splicing fitness of 0.0123.
C82A A111G A120C A145U C150A C169U U176A gave a reverse-splicing fitness of 0.0152.
C82A A111C C169A gave a reverse-splicing fitness of 0.00822.
Work on C82A A111C C169U yielded a reverse-splicing fitness of 0.0139.
In the case of C82A A111C C169G, the reverse-splicing fitness is reported as 0.00911.
C82A A111G A120C A145G C150A C169A U176A showed a reverse-splicing fitness of 0.019.
C82A A111G A120C A145G C150A C169A U176G gave a reverse-splicing fitness of 0.00941.
C82A A111G A120C A145G C150A C169A U176C showed a reverse-splicing fitness of 0.0211.
C82A A111G A120C A145C C150G C169A U176A showed a reverse-splicing fitness of 0.00906.
For C82A A111G A120C A145C C150G C169A U176G, the reverse-splicing fitness was 0.00545.
Work on C82A A111G A120C A145C C150G C169A U176C yielded a reverse-splicing fitness of 0.0108.
Work on C82A A111G A120C A145C C150A C169A yielded a reverse-splicing fitness of 0.00989.
C82A A111G A120C A145C C150A C169U showed a reverse-splicing fitness of 0.00853.
Work on C82A A111G A120C A145C C150A C169G yielded a reverse-splicing fitness of 0.00832.
Variant C82A A111G A120C C169U U176A has a reverse-splicing fitness of 0.016.
Variant C82A A111G A120C C169U U176C has a reverse-splicing fitness of 0.0138.
Variant C82A A111G A120C C169U U176G has a reverse-splicing fitness of 0.00535.
C82A A111G A120C A145U C169G U176A showed a reverse-splicing fitness of 0.0135.
With C82A A111G A120C A145U C169G U176C the reverse-splicing fitness was 0.0172.
For C82A A111G A120C A145U C169G U176G, the reverse-splicing fitness was 0.00526.
Variant C82A A111G A120C C150G C169U U176A has a reverse-splicing fitness of 0.00701.
Variant C82A A111G A120C C150G C169U U176G has a reverse-splicing fitness of 0.00651.
C82A A111G A120C C150G C169U U176C gave a reverse-splicing fitness of 0.0107.
With C82A A111G A120C A145C C150A C169U U176C the reverse-splicing fitness was 0.011.
In the case of C82A A111G A120C A145C C150A C169U U176G, the reverse-splicing fitness is reported as 0.00607.
With C82A A111G A120C A145C C150A C169U U176A the reverse-splicing fitness was 0.0138.
Work on C82A A111G A120G A145C C150U U176A yielded a reverse-splicing fitness of 0.00898.
C82A A111G A120G A145C C150U U176G showed a reverse-splicing fitness of 0.00504.
C82A A111G A120G A145C C150U U176C showed a reverse-splicing fitness of 0.0104.
For C82A A111G A120C C150A C169A, the reverse-splicing fitness was 0.0113.
Variant C82A A111G A120C C150A C169G has a reverse-splicing fitness of 0.00973.
With C82A A111G A120C C150A C169U the reverse-splicing fitness was 0.011.
Variant C82A A111G A120G A145C has a reverse-splicing fitness of 0.0136.
C82A A111G A120C A145C C150U C169G U176A showed a reverse-splicing fitness of 0.025.
C82A A111G A120C A145C C150U C169G U176G showed a reverse-splicing fitness of 0.00681.
For C82A A111G A120C A145C C150U C169G U176C, the reverse-splicing fitness was 0.0213.
With C82A A111G A120C A145U C150A C169G U176A the reverse-splicing fitness was 0.0188.
For C82A A111G A120C A145U C150A C169G U176G, the reverse-splicing fitness was 0.00642.
In the case of C82A A111G A120C A145U C150A C169G U176C, the reverse-splicing fitness is reported as 0.0245.
C82A A111G A120C A145C C169A U176A gave a reverse-splicing fitness of 0.0162.
